Measurements taken from patent US8603949B2, “Libraries of optimized cytochrome P450 enzymes and the optimized P450 enzymes” (California Institute of Technology, priority 2003, dated 2013).
Counter-ions that a name gives are not always drawn.

B1: Chimera 46-73: CYP102A1 heme domain with residues 46-73 from CYP102A2 (protein)
chain: TIKEMPQPKTFGELKNLPLLNTDKPVQALMKIADELGEIFKFEAPAGTTIVVSGHELVKEVCDEERFDKSIEGALKFVRDFAGDGLATSWTHEKNWKKAHNILLPSFSQQAMKGYHAMMVDIAVQLVQKWERLNADEHIEVPEDMTRLTLDTIGLCGFNYRFNSFYRDQPHPFITSMVRALDEAMNKLQRANPDDPAYDENKRQFQEDIKVMNDLVDKIIADRKASGEQSDDLLTHMLNGKDPETGEPLDDENIRYQIITFLIAGHETTSGLLSFALYFLVKNPHVLQKAAEEAARVLVDPVPSYKQVKQLKYVGMVLNEALRLWPTAPAFSLYAKEDTVLGGEYPLEKGDELMVLIPQLHRDKTIWGDDVEEFRPERFENPSAIPQHAFKPFGNGQRACIGQQFALHEATLVLGMMLKHFDFEDHTNYELDIKETLTLKPEGFVVKAKSKKIPLGGIPSPST
modifications: Chimeric Cytochrome P450 heme group sequence from Bacillus megaterium and Bacillus subtilis
notes: CYP102A1 heme domain with residues 46-73 from CYP102A2
B2: Chimera 277-365: CYP102A1 heme domain with residues 277-365 from CYP102A2 (protein)
chain: TIKEMPQPKTFGELKNLPLLNTDKPVQALMKIADELGEIFKFEAPGRVTRYLSSQRLIKEACDESRFDKNLSQALKFVRDFAGDGLATSWTHEKNWKKAHNILLPSFSQQAMKGYHAMMVDIAVQLVQKWERLNADEHIEVPEDMTRLTLDTIGLCGFNYRFNSFYRDQPHPFITSMVRALDEAMNKLQRANPDDPAYDENKRQFQEDIKVMNDLVDKIIADRKASGEQSDDLLTHMLNGKDPETGEPLDDENIRYQIITFLIAGHETTSGLLSFATYFLLKHPDKLKKAYEEVDRVLTDAAPTYKQVLELTYIRMILNESLRLWPTAPAFSLYPKEDTVIGGKFPITTNDRISVLIPQLHRDRDIWGDDVEEFRPERFENPSAIPQHAFKPFGNGQRACIGQQFALHEATLVLGMMLKHFDFEDHTNYELDIKETLTLKPEGFVVKAKSKKIPLGGIPSPST
modifications: Chimeric Cytochrome P450 heme group sequence from Bacillus megaterium and Bacillus subtilis
notes: CYP102A1 heme domain with residues 277-365 from CYP102A2
B3: Chimera 50-140: CYP102A1 heme domain with residues 50-140 from CYP102A2 (protein)
chain: TIKEMPQPKTFGELKNLPLLNTDKPVQALMKIADELGEIFKFEAPGRVTIVVSGHELVKEVCDEERFDKSIEGALEKVRAFSGDGLATSWTHEPNWRKAHNILMPTFSQRAMKDYHEKMVDIAVQLIQKWARLNPNEAVDVPEDMTRLTLDTIGLCGFNYRFNSFYRDQPHPFITSMVRALDEAMNKLQRANPDDPAYDENKRQFQEDIKVMNDLVDKIIADRKASGEQSDDLLTHMLNGKDPETGEPLDDENIRYQIITFLIAGHETTSGLLSFALYFLVKNPHVLQKAAEEAARVLVDPVPSYKQVKQLKYVGMVLNEALRLWPTAPAFSLYAKEDTVLGGEYPLEKGDELMVLIPQLHRDKTIWGDDVEEFRPERFENPSAIPQHAFKPFGNGQRACIGQQFALHEATLVLGMMLKHFDFEDHTNYELDIKETLTLKPEGFVVKAKSKKIPLGGIPSPST
modifications: Chimeric Cytochrome P450 heme group sequence from Bacillus megaterium and Bacillus subtilis
notes: CYP102A1 heme domain with residues 50-140 from CYP102A2
B4: Chimera 118-194: CYP102A1 heme domain with residues 118-194 from CYP102A2 (protein)
chain: TIKEMPQPKTFGELKNLPLLNTDKPVQALMKIADELGEIFKFEAPGRVTRYLSSQRLIKEACDESRFDKNLSQALKFVRDFAGDGLATSWTHEKNWKKAHNILLPSFSQQAMKGYHAKMVDIAVQLIQKWARLNPNEAVDVPGDMTRLTLDTIGLCGFNYRFNSYYRETPHPFINSMVRALDEAMHQMQRLDVQDPAYDENKRQFQEDIKVMNDLVDKIIADRKASGEQSDDLLTHMLNGKDPETGEPLDDENIRYQIITFLIAGHETTSGLLSFALYFLVKNPHVLQKAAEEAARVLVDPVPSYKQVKQLKYVGMVLNEALRLWPTAPAFSLYAKEDTVLGGEYPLEKGDELMVLIPQLHRDKTIWGDDVEEFRPERFENPSAIPQHAFKPFGNGQRACIGQQFALHEATLVLGMMLKHFDFEDHTNYELDIKETLTLKPEGFVVKAKSKKIPLGGIPSPST
modifications: Chimeric Cytochrome P450 heme group sequence from Bacillus megaterium and Bacillus subtilis
notes: CYP102A1 heme domain with residues 118-194 from CYP102A2
B5: Chimera 65-256: CYP102A1 heme domain with residues 65-256 from CYP102A2 (protein)
chain: TIKEMPQPKTFGELKNLPLLNTDKPVQALMKIADELGEIFKFEAPGRVTRYLSSQRLIKEACDEERFDKSIEGALEKVRAFSGDGLATSWTHEPNWRKAHNILMPTFSQRAMKDYHEKMVDIAVQLIQKWARLNPNEAVDVPGDMTRLTLDTIGLCGFNYRFNSYYRETPHPFINSMVRALDEAMHQMQRLDVQDKLMVRTKRQFRYDIQTMFSLVDSIIAERRANGDQDEKDLLARMLNVEDPETGEKLDDENIRFQIITFLIAGHETTSGLLSFALYFLVKNPHVLQKAAEEAARVLVDPVPSYKQVKQLKYVGMVLNEALRLWPTAPAFSLYAKEDTVLGGEYPLEKGDELMVLIPQLHRDKTIWGDDVEEFRPERFENPSAIPQHAFKPFGNGQRACIGQQFALHEATLVLGMMLKHFDFEDHTNYELDIKETLTLKPEGFVVKAKSKKIPLGGIPSPST
modifications: Chimeric Cytochrome P450 heme group sequence from Bacillus megaterium and Bacillus subtilis
notes: CYP102A1 heme domain with residues 65-256 from CYP102A2

Tested on: not listed separately
Assay: Thermostability (loss of Soret band at increasing temperatures)
Assay type: physicochemical
Settings: cell extracts heated 10 minutes
Description: Thermostability was assayed by monitoring the loss of the Soret band at increasing temperatures. […] However, thermostability may be important for retention of catalytic activity: the two chimeras that lacked peroxygenase activity were also the least thermostable.
Cell extracts were heated in a thermocycler for 10 minutes at various temperatures, followed by cooling to 4° C. Extracts were centrifuged for 5 minutes at 3500×g to remove any precipitates. Carbon monoxide reduced difference spectroscopy was used to quantitate the amount of P450. The reduction of the carbon monoxide peak was monitored over a range of temperatures.

Molecule	Tm
B1	55 °C
B2	39 °C
B3	52 °C
B4	47 °C
B5	36 °C

Tested on: not listed separately
Assay: Peroxidase activity with ABTS and H2O2
Assay type: biochemical
Settings: 10 mM ABTS, 20 mM H2O2, pH 5.0; activities <0.2 not detectable (N.D.)
Text: P450s can reduce peroxide to water (and a proton) using a mechanism similar to that of peroxidases, although the intrinsic rate for P450s is many orders of magnitude slower. (Mansuy, D., Comp Biochem Physiol C Pharmacol Toxicol Endocrinol 121, 5-14 (1998)). It has been proposed that the earliest P450 function may have been as a peroxidase. (Gotoh, O., Cytochrome P450, 2nd Edition, pp. 255-272 (1993)). To investigate how recombination affects P450 peroxidase activity, the colorimetric substrate 2,2′-azino-bis(3-ethylbenzothiazoline-6-sulfonate) (ABTS) was used to monitor this reaction (Childs et al., Biochem J 145,93-103 (1975)).
This example provides an example of how one can measure peroxidase activity. Initial rates of peroxidase activity were measured by monitoring the accumulation of the radical cation of ABTS at 414 nm (Childs et al., Biochem J., 145:93-103 (1975)). Enzyme (1 μM) was mixed with 10 mM ABTS in 200 mM phosphate buffer (pH 5.0) in a cuvette at room temperature. Samples were zeroed and reactions were initiated with the addition of H2O2 to a concentration of 20 mM. The absorbance at 414 nm was monitored for 5 minutes. Rates were determined from the steepest portion of the time course. An extinction coefficient of […] for ABTS was used.

Molecule	Peroxidase activity
B1	6.8 nmol product/nmol P450/min
B3	10.4 nmol product/nmol P450/min
B4	34.3 nmol product/nmol P450/min

Same assay, conditions: ABTS

Molecule	peroxidase activity relative to parents
B2	no detectable peroxidase activity
B3	significantly higher peroxidase activities
B4	significantly higher peroxidase activities
B5	no detectable peroxidase activity

Tested on: not listed separately
Assay: Peroxygenase activity on 2-phenoxy-ethanol (4-AAP assay)
Assay type: biochemical
Settings: not given
Description: (§1) The chimeras were assayed for hydroxylation of p-nitrophenoxydodecanoic acid (12-pNCA), a fatty acid analog that is hydroxylated by CYP102A1 and CYP102A2 to yield p-nitrophenolate (Schwaneberg et al., Anal Biochem 269,359-366 (1999)). […] When hydroxylation rates for the parent CYP102 enzymes were monitored using the maximum soluble concentrations of these substrates, activity could only be detected on 2-phenoxy-ethanol.
(§2) Rates on 2-phenoxy-ethanol and allyloxy-benzene were determined using 2 μM enzyme, 20 mM H2O2, 1% DMSO, and 1% acetone in 100 mM N-[2-hydroxyethyl]piperazine-N′-[3-propanesulfonic acid] (Epps) (pH 8.2) at room temperature. Substrate concentrations for 2-phenoxy-ethanol (100 mM) and allyloxy benzene (50 mM) maintained saturation. Reactions were initiated by the addition of H2O2 and quenched at appropriate times using an equal volume of a solution containing 4M urea and 100 mM NaOH. 120 μl of 0.6% 4-AAP was added, followed by mixing and addition of 120 μl of 0.6% potassium persulfate. Color was allowed to develop for 20 minutes before absorbance was read at 500 nm. Rates were determined from the linear region of the time course. The major products were determined by GC/MS to be the hemiacetal, which decomposes to phenol. The extinction coefficient for the 4-AAP/phenol complex was determined to be 4,800 M^−1cm^−1. The results can be seen in FIG. 4.

Molecule	fold higher peroxygenase activity with 2-phenoxy-ethanol than the most active parent (CYP102A1)
B1	6 fold

Same assay, conditions: 100 mM substrate

Molecule	peroxygenase activity on 2-phenoxy-ethanol
B1	highest activity

Tested on: not listed separately
Assay: Peroxygenase substrate activity profile
Assay type: biochemical
Settings: 20 mM H2O2
Description: as §1
Chimeras were assayed for peroxygenase activity on 12-pNCA, 2-phenoxy -ethanol and allyloxy-benzene. […] Rates are reported in nmol product/nmol P450/minute. […] Those with no activity include 65-256 and 277-365. Those with new activity include 165-256, 191-335, and 43-135.
This Example provides one method by which peroxygenase activity of a P450 enzyme may be characterized. First order rates for p-nitrophenolate accumulation were determined using 1 μM enzyme, 20 mM H2O2, 250 μM 12-pNCA and 0.5% dimethyl sulfoxide (DMSO) in 100 mM Tris-HCl (pH 8.2) at room temperature. Enzyme, substrate, buffer and DMSO were combined in a cuvette and zeroed at 410 nm. Reaction mixtures were incubated for 4 minutes and initiated by the addition of H2O2 to a final concentration of 20 mM. Initial rates were determined by monitoring the accumulation of p-nitrophenolate at 410 nm, and data from the first six seconds were used to determine initial rates. […] The extinction coefficient of p-nitrophenolate is 13,200 M^−1cm^−1 (Schwaneberg et al., Anal Biochem 269:359-366 (1999)).
as §2

substrate activity profile relative to parents	Molecule
altered activity	B1
no activity	B2
parent-like profiles	B3
parent-like profiles	B4
no activity	B5

Tested on: Mammalian P450
Assay: not given
Settings: cited from earlier work

Molecule	Mammalian P450 (main mammalian P450 responsible for breakdown)
O=C(O)Cc1ccccc1Nc1c(Cl)cccc1Cl [Diclofenac]	CYP2C9
Nc1c2c(nc3ccccc13)CCCC2 [Tacrine, 9-amino-1,2,3,4-tetrahydroacridine hydrochloride hydrate]	CYP1A2
CCCCNC(=O)NS(=O)(=O)c1ccc(C)cc1 [Tolbutamide]	CYP2C9
Nc1ccc(-c2ccccc2)cc1 [4-aminobiphenyl]	CYP1A2
COc1ccc(C(c2ccc(OC)cc2)C(Cl)(Cl)Cl)cc1 [methoxychlor]	CYP2B6
